Measurements taken from patent US20190201542A1 (AbbVie / Abbott, published 2019).
Positions count from the first letter of the chain named.

B1: chimeric SC16.15 (antibody, human IgG1, kappa, V domains shown)
VH: QVQLQQSGAELAKPGASVKMSCKASGYTFTRYWIHWIKQRPGQGLEWIGYINPTTVYTEFNQNFKDKATLTADKSSTTASMQLSSLTSEDSAVYYCARGGSNFFDYWGQGTTLTVSS
VL: DIQMTQSPASLAASVGETVAITCRASENIYYNLAWYQQKQGKSPQLLIYTANSLEDGVPSRFSGSGSGTQYSLKINSMQPEDSATYFCKQAYDVPPTFGGGTKLEIKR
notes: murine V regions on human IgG1/kappa; also called chimeric parent antibody of hSC16.15
B2: hSC16.34 (antibody, human IgG1, kappa, V domains shown)
VH: QVQLVQSGAEVKKPGASVKVSCKASGYTFTNYGMNWVRQAPGQRLEWMGWINTYTGDPTYADDFKGRVTITRDTSASTAYMELSSLRSEDTAVYYCARIGGNSPSDYWGQGTTVTVSS
VL: DIQMTQSPSSLSASVGDRVTITCKASQSVSNDVAWYQQKPGKVPKLLIYYASNRYSGVPSRFSGSGSGTDFTLTISSLQPEDVATYFCQQDYSSPWTFGGGTKVEIKR
notes: humanized IgG1/kappa; also called humanized SC16.34
B3: hSC16.56 (antibody, human IgG1, kappa, V domains shown)
VH: B2 VH with R44G, D57E, I70M, R72T, A76T, S84R, E89D, G101D, N102S, T113L
VL: EIVMTQSPATLSVSPGERATLSCKASQSVSNDVVWYQQKPGQAPRLLIYYASNRYTGIPARFSGSGSGTEFTLTISSLQSEDFAVYYCQQDYTSPWTFGQGTKLEIKR
notes: humanized IgG1/kappa; also called humanized SC16.56

Each binder was assayed against T1, human DLL3 (human, UniProt Q9NYJ7 27-492, limits assumed) (assay: surface plasmon resonance).
T1 construct: also called hDLL3; DLL3 protein
T1 sequence: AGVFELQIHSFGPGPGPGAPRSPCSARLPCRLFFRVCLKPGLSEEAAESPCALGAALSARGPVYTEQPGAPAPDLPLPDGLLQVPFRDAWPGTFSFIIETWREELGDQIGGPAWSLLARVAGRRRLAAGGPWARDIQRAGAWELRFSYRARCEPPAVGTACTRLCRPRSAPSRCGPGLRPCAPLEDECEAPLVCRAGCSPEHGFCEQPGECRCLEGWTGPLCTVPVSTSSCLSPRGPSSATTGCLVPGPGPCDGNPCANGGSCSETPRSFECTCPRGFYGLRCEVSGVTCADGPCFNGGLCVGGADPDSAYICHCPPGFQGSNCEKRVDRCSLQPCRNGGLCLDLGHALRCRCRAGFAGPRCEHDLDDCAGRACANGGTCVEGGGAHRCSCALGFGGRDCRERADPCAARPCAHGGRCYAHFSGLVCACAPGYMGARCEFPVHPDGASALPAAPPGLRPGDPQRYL

Binding result, binds:
B1, B2, B3
